# Molecular target: Staphylococcus aureus FakA (S. aureus)
substance,measurement,value
"Staphylococcus aureus FakB1 (wild type), palmitate-loaded (from UniProt X5EH37 1-288) (natural protein)",apparent KM of FakB1 in the FA kinase assay with 0.2 μM FakA,0.13 µM
"Staphylococcus aureus FakB1(A121I), palmitate-loaded (from UniProt X5EH37 1-288) (natural protein)",apparent KM of FakB1(A121I) in the FA kinase assay with 0.2 μM FakA,0.1 µM
"Staphylococcus aureus FakB1(A158L), myristate-loaded (from UniProt X5EH37 1-288) (natural protein)",apparent KM of FakB1(A158L) in the FA kinase assay with 0.2 μM FakA,0.13 µM
